Reference: the supplement of paper PMC9170038

System: MS2 coat protein
Assay: apparent KD of MS2 coat protein; higher = weaker reporter binding
Settings: Eterna round: R107
In short: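 Each design's apparent KD comes from the median of binding-curve fits to its normalised clusters. Those clusters carried RNA switches transcribed on-chip from Illumina sequencing clusters. SNAP-549-labelled MS2 coat protein was titrated onto them in twofold steps (0.7 or 1.5 nM to 3 µM; per step 0.8–1.5 h down to 10–20 min). Conditions were 100 mM Tris-HCl pH 7.5, 80 mM KCl, 4 mM MgCl2, without or with constant ligand.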

[1] = input ligand: theophylline 20 uM
[2] = input ligand: tryptophan 2.4 mM
[3] = input ligand: theophylline 2 mM

Sequence | apparent KD of MS2 coat protein (input ligand: arginine 13.2 mM) [nM] | apparent KD of MS2 coat protein [1] [nM] | apparent KD of MS2 coat protein [2] [nM] | apparent KD of MS2 coat protein (input ligand: none) [nM] | apparent KD of MS2 coat protein [3] [nM]
GCAUGCGAUACCGAUACCAGCUACUCCAUGGCGCUCCACAUGAGGAUCACCCAUGUAAAUAGCCCUUGGCAGCGGUAUUGAGAUG [Anrabegema] | 16.4 | 53.9 | 21 | – | –
GCCAUCGGCGGAAGCCGAUGGGAUACAGAAGGAGCGUGGAUUAACACAGGUAGGUCGCUGGACAUGAGGAUCACCCAUGUAAUAG [SSAA #8] | 17.4 | 27.2 | 21.7 | 26.2 | 32.4
GCCCUGCGCCCGGGACCGGCAAGAUCCAUGCGAGGACCGGUACGGCCGCCACUCGCAGACGUACAUGAGGAUCACCCAUGUCCUC [theeternabot_exclusion_MS2_Trp_A_24] | 140 | 838 | – | – | 867
GCCGCUGCCGCGAUAUGUAUGGGUGUGUAACGAGGACCGGUACGGCCGCCACUCGCGAUCGCACAUGAGGAUCACCCAUGUGUCC [Exclusion Tryp A GF18] | 26.5 | 72.4 | – | – | 68
GCCGGACUUUCGGCCGCCACUGAGAGAGUCGUGUGAACAUGAGGAUCACCCAUGUAAUAUAUAUACAGGACCGGGAGGGUUGGGC [4.R] | 10.5 | 15.1 | 12.4 | 13.7 | 14.4
GCGAACGGACCGUUGCCUUCCUGUGUGCGGCGAGGACCGGUACGGCCGCCACUCGACUGCGUACAUGAGGAUCACCCAUGUUAGA [theeternabot_exclusion_MS2_Trp_A_16] | 41.2 | 40.2 | – | – | 31.8
GCGAUGGAGCGAAGGAGCGGCUGUGACUACAUGAGGAUCACCCAUGUACGAUUGUAAGGUAGCCAGGUAGGUCGCGCUCCAUCGC [SSAB NP+V+V2 #18] | 14 | 22.5 | 15.8 | 16.3 | 24.6
GCUAGGUCAUCGGCCGCCACUAACGACGGCUCCAACAUGAGGAUCACCCAUGUGCCACAUGCGCAUAGGACCGGGAUGACCUAGC [SSTB NP+V+V2 #4] | 25.6 | 55 | 14.6 | 36.9 | 45
GCUAGUGGCAGAAGGAGCGGCAUACUUGCAAGUGACAUGAGGAUCACCCAUGUAAGGGAAUGCCAGGUAGGUCGCUGCCACUAGC [EAB NP+V+V2 #1 +-Same Structure] | 34.9 | 54.5 | 28.5 | 31.7 | 38.7
GCUGCCAUACGAAGGAGCGCUGUUGUAGUGAGGCGAACAUGAGGAUCACCCAUGUGGCAGCAGCAGGUAGGUCGCGUAUGGCAGC [EAB #13] | 13.7 | 35 | 26 | 18.6 | 33.9
GGAAAAUAUAGGGAUACCAGAUAUGGCGUUGACAUGAGGAUCACCCAUGUCUUAGCAGUGAUCCCUUGGCAGCCCACACCAUCCG [theeternabot_sameState_MS2_Theo_B_13] | 40.9 | 61.3 | 64.5 | – | –
GGAAACCCGACGGCCGCCACUAACGGUCUCAAAAGAGGUUGAACACAUGAGGAUCACCCAUGUAAUAGGACCGGGUCGUGUGAAA [Design 1] | 17.9 | 24.9 | – | – | 19.4
GGAAGCAGGACUGAUACCAGUCCAGCGAAUCAUACGACGCAACAUGAGGAUCACCCAUGUGACCCUUGGCAGCAGACUGCUACCG [Same State Theophylline B GF 27] | 33.1 | 37.2 | 32.2 | – | –
GGACUAACCAGAAGGAGCGACACGCAGAAACUGCAAUUUCCUCCGCACGAGGAUCACCCGUGUCAGGUAGGUCGCUGGUUAGUCG | 20.6 | 35.1 | 21.1 | 22.1 | 25.8
GGACUAACCAGAAGGAGCGACACGCAGAAACUGCUAAUUCCUCCGCACGAGGAUCACCCGUGUCAGGUAGGUCGCUGGUUAGUCG [ArgBX 28] | 20.3 | 28.5 | 23.3 | 20.5 | 24.3
GGACUAACCAGAAGGAGCGACGCGCAGAAACUGCAAAAUCCUCCACACGAGGAUCACCCGUGUCAGGUAGGUCGCUGGUUAGUCG [ArgXB 16 #CuTurnoff #MS2Left #StaticStem #Blueprint] | 30.2 | 36.1 | 31.3 | 26.6 | 27.2
GGACUAACCAGAAGGAGCGGCACGCAGAAACUGCAAUUUCCUCCACACGAGGAUCACCCGUGUCAGGUAGGUCGCUGGUUAGUCG [ArgBX 29] | 26.4 | 21.8 | 22.6 | 22.7 | 23.8
GGACUAACCUGAAGGAGCGACGCGCAGAAACUGCAAAUUCCUCCACACGAGGAUCACCCGUGUCAGGUAGGUCGCAGGUUAGUCG [ArgBX 28] | 13.6 | 18.9 | 16.9 | 14.6 | 18.2
GGAUAGGACACGGCCGCCACUAGCUAGGAUACUAGCAACAUUUCCUCACUUGAGGAACACCCAAGUAGGACCGGGUGUCCUAUCG | 122 | 724 | 740 | 517 | 1360

Sequence | apparent KD of MS2 coat protein (input ligand: arginine 13.2 mM) [nM] | apparent KD of MS2 coat protein [1] [nM] | apparent KD of MS2 coat protein [2] [nM] | apparent KD of MS2 coat protein (input ligand: none) [nM] | apparent KD of MS2 coat protein [3] [nM]
GGAUAGGACACGGCCGCCACUAGCUAGGAUACUAGCAACAUUUCCUCAUCUGAGGAUCACCCAGGUAGGACCGGGUGUCCUAUCG | 172 | 683 | 565 | – | 1070
GGAUAGGACACGGCCGCCACUUGCUAGGAUACUAGCAACAUUUCCUCUCAUGAGGAUCACCCAUGAAGGACCGGGUGUCCUAUCG | 21.3 | 30.6 | 27.3 | – | 23.3
GGAUUCAACUCGGCCGCCACUGGUGAUCCUAAUGUACAUGAGGAUCACCCAUGUACAUGAGAAUAUAGGACCGGGAGAUAAGUUA [Tryptophan B V3 (+3U)] | 23.2 | 33.5 | – | – | 32.2
GGCACGUACGGAAGGAGCGACUGUUCGACGUGGGUACAUGAGGAUCACCCAUGUCUCCGCAGUCAGGUAGGUCGCCGUACGUGCC [EAB NP+V+V2 #21 +-Same Structure] | 34.3 | 63.6 | 38.6 | 42.7 | 49.8
GGCCAGGCAGCGGCCGCCACUUAGUGGGCCGAAUGUCCUUUGCUGAACAUGAGGAUCACCCAUGUAAGGACCGGGCUGUUCCGCA [theeternabot_exclusion_MS2_Trp_B_30] | 27.4 | 42.3 | – | – | 41.5
GGCGCGGUGAUGGUAGCCGGACGCUAGGUACGAGGACCGGUACGGCCGCCACUCGGAGUCCUGGGACAUGAGGAUCACCCAUGUA [Same State Trp A GF18] | 78.9 | 118 | 63.4 | 161 | 209
GGCUGACAUGAGGAUCACCCAUGUAGUGAUACCAGUAAGAGAAUAUACCCUUGGCAGCACAGGUAACAACUCGUCUCCAAAGUAA [theeternabot_sameState_MS2_Theo_A_49] | 53.7 | 55.6 | 38.2 | – | –
GGGAAAUGAAUAGAAUGAGAUGACACAGAAGGAGCGCGGAUUAACGCAGGUAGGUCGCUGACAACAUGAGGAUCACCCAUGUUUC [#10 Same State - Arginine A] | 13.7 | 17.6 | 14.1 | 14.2 | 18
GGGCCCGGGCGCGAGCCCGGGCCCAUUGAUACCAGUGAUAUAUAACGCCCUUGGCAGCGAAUCCUAACAUGAGGAUCACCCAUGU [5.G] | 35.2 | 61.5 | 37 | 46.3 | 71.8
GGGCGCUAUCCCGCGAGGGAUAGCGUUCAACGAGGACCGGUACGGCCGCCACUCGAACGAGUGGUGACAUGAGGAUCACCCAUGU [Iaa] | 39.9 | 66.4 | 56.4 | 42.5 | 53.3
GGGCGUGUGGUGCGGCGUGCUCCGCUCCGUCGAGGACCGGUACGGCCGCCACUCGACAUGAGGAUCACCCAUGUGCGAGCGCGCG [#1 Exclusion - Tryptophan A Attempt #9 (HarryS)] | 16.3 | 10.5 | 24.4 | 9.81 | 14.4
GGGUACAUCGCGGCCGCCACUCAUGUAAAUGCGUGAGGAUCACCCAUGCCGAUGGAGACAUCGGAGAGGACCGGGUGAUGUACCG | 27.9 | 40 | 46.7 | 38.5 | 52.7
GGGUGGUAGGCGGCCGCCACUGAUUUUUAUUUAUAGAUGACAUGAGGAUCACCCAUGUUGAUAUGCAGGACCGGGCCUGUUGUUG [aaaP] | 10.9 | 19.7 | – | – | 15.4
GGGUGGUAGGCGGCCGCCACUGAUUUUUAUUUAUAGAUGACAUGAGGAUCACCCAUGUUUAUGUGCAGGACCGGGCCUGUUGUGG [aaaR] | 12.2 | 15.2 | 13.9 | 16.1 | 15.6
GGUACAUGAGGAUCACCCAUGUAUUGGUACCGAGGACCGGUACGGCCGCCACUCGCAUGACAUGAGGAUCACCCAUGUGAAACCU [SSTA DOUBLE!!! :-D #12] | 29.3 | 51.6 | – | – | 59.9
GGUAUGUAUUCGGAAACGAAUGCAUACCAACGAGGACCGGUACGGCCGCCACUCGGGCGGCGAUCACAUGAGGAUCACCCAUGUA [Ex Tryptophan A 2] | 28 | 45.3 | – | – | 56.6
GGUUGGUAUAUAUAUAUAUUGAUUACUGAAGGAGCGGGAAAUAACCCAGGUAGGUCGCAGAGAUCCACAUGAGGAUCACCCAUGU [!0.G] | 24.3 | 60.3 | 39.1 | 45.1 | 56.8
GGUUGGUGUAGAGAUAUAUUGAUUACUGAAGGAGCGGGAAAUAACCCAGGUAGGUCGCAGAGAUCCACAUGAGGAUCACCCAUGU [!0.K] | 30.6 | 53 | 29.8 | 39.7 | 36.9
GUCAGUAGAACAGAUACCAGUCAAAGGCUGUGAUCUCAUAACAUGAGGAUCACCCAUGUUGACCCUUGGCAGCUGUGGGCGAGGG [#20 Exclusion-TheophyllineB] | 26 | 77.8 | 43.7 | – | –
